The results in this text go back to patent JP2011512120A (dated 2011).

Assay [1] addresses 酵母由来組換えhGM−CSF(Leukine Berlex) (human). Nature of the assay: SPR (Biacore), antibody captured through protein G on the chip, rhGM-CSF injected. Background: SPR reads the build-up and loss of mass on a sensor chip optically.
The target in assay [2] is 大腸菌由来組換えhGM−CSF(Peprotech) (human). Described as above.

B1: EV1007 (antibody, V domains shown)
VH: QVHLVQSGSELKKPGASVKVSCKASGYSFSRYGIKWVRQAPGQGLEWMGWINTRSGVPAYAQGFTGRFVFSLDTSVDTAFLEISSLKTEDTGIYYCATRPPRFYDKTEYWEDGFDVWGRGTLVTVSS
VL: QSVLTQPPSASGTPGQSVNISCSGSSSNIGNSYVYWYQQLPGTAPKLLIYRNNRRPSGVPDRFSGSKSDTSASLAISGLRSEDEADYYCATWDDSLSGRLFGGGTKLTVL
As usually defined, the Kd is the concentration at which binding is half-saturated. Lower therefore signals tighter binding. Turning to B1, the figures for the Kd in assay [1] and in assay [2] were 1.2 nM and 0.93 nM, respectively.

B2: EV1018 (antibody, V domains shown)
VH: QVQLVESGGGMVQPGMPLRLSCVASGFTFSSYGMHWVRQAPGKGLEWVALTYHHGNRKFYADSVRGRFTISRDNSNNTLYLQMTSLRAEDTAVYFCARESMGAINDNWGQGTLVIVSS
VL: QSALTQETSVSGTVGQKVTLSCIGNNNNIGSHAVGWYQQISRGAPKMVLFGRSPPSGVPDRFSGSKSGTTASLIISGLQPEDEADYYCSTWDSSLSAVVFGGGTKLTVLR
With B2, the Kd in assay [1] came to 0.23 nM; in assay [2] it was 0.15 nM.

B3: EV1003 (antibody, V domains shown)
VH: LVQLVQSEAEVKKPGASVRISCRTSGYIFPTFALHWVRQAPGQSLEWVGSINTASGKTKFSTKFQDRLTLSSNTSATTVYMDLSGLTLDDTALYYCARDRFQNIMATILDVWGQGTLVTVSS
VL: DIVLTQSPGTLSLSPGERVTVSCRASHRVSSNYLAWYQQRPGQSPRLLIFGASNRATGVPDRFSGSGSGTDFALTISRLEPDDFAVYYCQQYASSPVTFGGGTKLEIK
For B3, the Kd in assay [1] came to 0.23 nM; in assay [2] it was 0.095 nM.

B4: EV1019 (antibody, V domains shown)
VH: QAQLVESGGGVVKPGGSLRLSCISSKFTFSSHAMHWVRQAPGKGLEWVAVIWHDGSKKYYADSVKGRFSVSRDNSKNTLFLQMDSLRAEDTAVYFCGKEWVGGTCDSWGQGTLVIVSS
VL: QPALTQEASVSGTVGQTVTLLCSGNSSNIGSYAVGWYQQISRGAPKIVVFGKSPASGIPDRFSGSKSGTTASLLVSGLQPEDEADYYCSTWDSRLSAVLFGGGTKLTVLR
Take B4: the Kd was determined as 0.36 nM in assay [1] and 0.15 nM in assay [2].
